Experimental data reported in patent US20210139559A1.

Biological target: human VEGF165 ligand (human) (UniProt P15692)
Experiment: serial dilution mixed with 50 pM human VEGF165 in solution, unbound VEGF165 measured by ELISA

human VEGF165 ligand (human), sequence (P15692 other isoform, or with tags, fused parts or gaps limits assumed): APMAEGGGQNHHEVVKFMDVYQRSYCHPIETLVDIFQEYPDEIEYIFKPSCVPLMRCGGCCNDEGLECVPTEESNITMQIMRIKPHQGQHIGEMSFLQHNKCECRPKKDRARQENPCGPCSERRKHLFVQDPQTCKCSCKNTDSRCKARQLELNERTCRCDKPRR

Substance: Aflibercept (Fc fusion)
- IC50: 9.82 pM
